We go through 1 substance from article PMC6831737.

The target in this assay is CAP256 SU gp140 (soluble cleavage-independent HIV-1 subtype C Env gp140 antigen) (HIV-1 subtype C, CAP256 SU virus). Description: SEC + native gel or EMSA; GNL affinity-purified protein in PBS pH 7.4, fractionated on Superdex 200 HiLoad 16/600; pooled peaks resolved by BN-PAGE (NativePAGE 3-12% Bis-Tris) and stained with Coomassie. A general note: A gel shift assay detects complexes by their altered migration in electrophoresis.

As usually defined, the stoichiometry N is the number of molecules, sites or subunits per partner or assembly. As for “CAP256 SU gp140 (soluble cleavage-independent HIV-1 subtype C Env gp140 antigen) (domain or fragment)”, the stoichiometry N worked out at 3.
